Drawing on publication PMC6917717, “YtfK activates the stringent response by triggering the alarmone synthetase SpoT in Escherichia coli” (Nature Communications, 2019), this text covers Kd for one molecule.

The experiment deals with T1, SpoT catalytic domains (SpoT^1-378) (E. coli, UniProt P0AG24 1-378).
T1 construct: SpoT, E. coli, residues 1-378 (catalytic domains: hydrolase and synthetase); no cleavage is described; also called SpoT^1–378-6His; recombinant SpoT^1–378
Description: BLI; biotinylated YtfK (2.5 µM) on streptavidin biosensors; SpoT1-378 (5-80 µM) or RelA1-396 (40-120 µM) as analyte; BLItz, 25 °C; 50 mM Tris-HCl pH 8.0, 500 mM NaCl, 500 mM KCl, 2 mM β-mercaptoethanol, glycerol 2%, BSA 1 mg/ml; KD estimated from responses 10 s before the end of association, one-site fit. Conditions: both partners purified.

T1 sequence (P0AG24 1-378): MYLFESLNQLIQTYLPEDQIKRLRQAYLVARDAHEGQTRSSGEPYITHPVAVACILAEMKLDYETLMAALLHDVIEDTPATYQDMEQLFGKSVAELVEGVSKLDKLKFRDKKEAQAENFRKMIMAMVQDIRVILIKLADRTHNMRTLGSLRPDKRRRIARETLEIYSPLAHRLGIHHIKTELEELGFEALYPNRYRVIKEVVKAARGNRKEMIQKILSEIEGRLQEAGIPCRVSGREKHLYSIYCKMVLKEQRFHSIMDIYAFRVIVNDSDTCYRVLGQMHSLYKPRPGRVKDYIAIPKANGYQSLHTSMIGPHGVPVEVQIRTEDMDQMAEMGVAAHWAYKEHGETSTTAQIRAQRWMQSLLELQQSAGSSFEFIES

B1: YtfK, purified, biotinylated (natural protein)
chain: not shown
modifications: biotin (EZ-Link NHS-PEG4-Biotin, 1:1 ratio of YtfK and biotin)
notes: YtfK, E. coli; ytfK gene amplified from E. coli chromosomal DNA and cloned in pET28a+-TRX (thioredoxin-6his-tev); the TRX-6His-TEV cassette (NcoI/BamHI) lies upstream of ytfK (BamHI/HindIII), so residues from the TEV site and cloning site may remain at the N-terminus; also called Untagged YtfK; biotinylated YtfK
On to B1, for which the Kd is 35 µM.
